In the supplement of paper PMC9112550, “Optimization of the antimicrobial peptide Bac7 by deep mutational scanning” (BMC Biology, 2022):

What follows are sequences tested on Escherichia coli TOP10 (assay: shrunken log2 fold change of peptide-encoding DNA abundance (4.5 h post-induction vs induction); higher = less antimicrobial activity (less host growth inhibition)). Details: time post-induction: 4.5 h; library: site-saturation at positions 5, 18, 19, 20.
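Also: peptides expressed intracellularly from a pBAD plasmid library in pooled LB shake-flask culture, induced with 0.3% L-arabinose, DNA abundance read by NGS, three biological replicates, DESeq2 with apeglm shrinkage.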

Sequence | shrunken log2 fold change
RRIRDRPPRLPRPRPRPKPMPRP | 0.135
RRIRNRPPRLPRPRPRPQQQPRP | 0.103
RRIRWRPPRLPRPRPRPFEEPRP | 0.43
RRIRSRPPRLPRPRPRPQWFPRP | -0.241
RRIRARPPRLPRPRPRPMDIPRP | 0.142
RRIRERPPRLPRPRPRPTILPRP | -0.0814
RRIRPRPPRLPRPRPRPMWRPRP | -0.0622
RRIRSRPPRLPRPRPRPQSPPRP | -0.0599
RRIRIRPPRLPRPRPRPRGVPRP | 0.0556
RRIRHRPPRLPRPRPRPSLGPRP | 0.165
RRIRIRPPRLPRPRPRPPCAPRP | 0.201
RRIRKRPPRLPRPRPRPGEFPRP | 0.242
RRIRARPPRLPRPRPRPSDIPRP | -0.0794
RRIRCRPPRLPRPRPRPSGIPRP | -0.154
RRIRPRPPRLPRPRPRPWMNPRP | -0.0141
RRIRRRPPRLPRPRPRPQNEPRP | 0.0801
RRIRTRPPRLPRPRPRPPERPRP | 0.351
RRIRVRPPRLPRPRPRPGYAPRP | 0.0532
RRIRPRPPRLPRPRPRPFGYPRP | -0.24
RRIRVRPPRLPRPRPRPRSQPRP | 0.25
RRIRMRPPRLPRPRPRPRCFPRP | 0.397
RRIRTRPPRLPRPRPRPVVTPRP | 0.0483
RRIRVRPPRLPRPRPRPRRCPRP | -0.0137
RRIRERPPRLPRPRPRPYEYPRP | -0.387
RRIRHRPPRLPRPRPRPTRVPRP | 0.211

Sequence | shrunken log2 fold change
RRIRPRPPRLPRPRPRPVRSPRP | 0.371
RRIRWRPPRLPRPRPRPAHYPRP | -0.145
RRIRGRPPRLPRPRPRPEGNPRP | 0.0816
RRIRMRPPRLPRPRPRPSSVPRP | 3.19
RRIRNRPPRLPRPRPRPNCYPRP | -0.618
RRIRMRPPRLPRPRPRPAQKPRP | 1.2
RRIRARPPRLPRPRPRPVFWPRP | 0.699
RRIRIRPPRLPRPRPRPIYMPRP | 0.00602
RRIRSRPPRLPRPRPRPSLVPRP | -0.345
RRIRQRPPRLPRPRPRPCVIPRP | -0.409
RRIRHRPPRLPRPRPRPAPRPRP | 0.749
RRIRIRPPRLPRPRPRPAWYPRP | 0.0724
RRIRFRPPRLPRPRPRPKIAPRP | -0.0112
RRIRPRPPRLPRPRPRPHDMPRP | -1.48
RRIRQRPPRLPRPRPRPMSEPRP | 0.0772
RRIRKRPPRLPRPRPRPNRGPRP | 0.0385
RRIRVRPPRLPRPRPRPFCHPRP | -0.264
RRIRERPPRLPRPRPRPHIPPRP | -0.682
RRIRKRPPRLPRPRPRPRKWPRP | 0.448
RRIRDRPPRLPRPRPRPGICPRP | -0.0538
RRIRMRPPRLPRPRPRPSTTPRP | 0.352
RRIRSRPPRLPRPRPRPLYIPRP | -0.276
RRIRFRPPRLPRPRPRPMLKPRP | -0.527
RRIRVRPPRLPRPRPRPHVAPRP | -0.0516
RRIRFRPPRLPRPRPRPVQFPRP | -0.652

Sequence | shrunken log2 fold change
RRIRTRPPRLPRPRPRPEPIPRP | 0.226
RRIRVRPPRLPRPRPRPKGQPRP | 0.147
RRIRIRPPRLPRPRPRPDVHPRP | -0.00757
RRIRWRPPRLPRPRPRPQRMPRP | 0.0753
RRIRARPPRLPRPRPRPHRMPRP | -0.0562
RRIRMRPPRLPRPRPRPKIMPRP | -0.208
RRIRHRPPRLPRPRPRPGHSPRP | -0.27
RRIRIRPPRLPRPRPRPLHNPRP | -0.563
RRIRMRPPRLPRPRPRPMYVPRP | 0.115
RRIRLRPPRLPRPRPRPPVAPRP | 0.387
RRIRCRPPRLPRPRPRPRHKPRP | -0.265
RRIRRRPPRLPRPRPRPIQIPRP | -0.00118
RRIRMRPPRLPRPRPRPIRSPRP | -0.0819
RRIRPRPPRLPRPRPRPPKMPRP | 0.401
RRIRRRPPRLPRPRPRPWGIPRP | -0.24
RRIRPRPPRLPRPRPRPGSRPRP | 0.144
RRIRPRPPRLPRPRPRPTRHPRP | 0.43
RRIRDRPPRLPRPRPRPADMPRP | -0.119
RRIRGRPPRLPRPRPRPCERPRP | 0.013
RRIRYRPPRLPRPRPRPAYMPRP | -0.396
RRIRPRPPRLPRPRPRPCLYPRP | -0.595
RRIRTRPPRLPRPRPRPMCVPRP | 0.103
RRIRMRPPRLPRPRPRPITQPRP | -0.00846
RRIRRRPPRLPRPRPRPMDCPRP | 0.00462
RRIRLRPPRLPRPRPRPVWSPRP | 0.0624

Sequence | shrunken log2 fold change
RRIRPRPPRLPRPRPRPFRFPRP | 0.0991
RRIRLRPPRLPRPRPRPMSWPRP | 0.0708
RRIRTRPPRLPRPRPRPMWRPRP | -0.0938
RRIRVRPPRLPRPRPRPCQSPRP | 0.0215
RRIRYRPPRLPRPRPRPEPYPRP | -0.288
RRIRQRPPRLPRPRPRPCQIPRP | -0.298
RRIRNRPPRLPRPRPRPISNPRP | 0.0351
RRIRQRPPRLPRPRPRPNLYPRP | -0.647
RRIRKRPPRLPRPRPRPKHDPRP | 0.133
RRIRLRPPRLPRPRPRPDMPPRP | -0.269
RRIRNRPPRLPRPRPRPMGNPRP | -0.0658
RRIRARPPRLPRPRPRPAEGPRP | 0.818
RRIRSRPPRLPRPRPRPMYCPRP | 0.0069
RRIRRRPPRLPRPRPRPAPDPRP | 1.65
RRIRVRPPRLPRPRPRPEQAPRP | 0.358
RRIRERPPRLPRPRPRPTTDPRP | -0.148
RRIRLRPPRLPRPRPRPSLRPRP | 0.00716
RRIRRRPPRLPRPRPRPGYPPRP | 0.00327
RRIRARPPRLPRPRPRPLLYPRP | 0.09
RRIRCRPPRLPRPRPRPYAQPRP | -0.227
RRIRIRPPRLPRPRPRPKMNPRP | -0.954
RRIRPRPPRLPRPRPRPVYVPRP | -0.167
RRIRPRPPRLPRPRPRPQCGPRP | -0.0915
RRIRDRPPRLPRPRPRPYCTPRP | -0.253
RRIRFRPPRLPRPRPRPINRPRP | 0.0882

Sequence | shrunken log2 fold change
RRIRWRPPRLPRPRPRPMGAPRP | 0.501
RRIRPRPPRLPRPRPRPHQGPRP | -0.213
RRIRNRPPRLPRPRPRPKGRPRP | 0.0238
RRIRIRPPRLPRPRPRPAFQPRP | 0.107
RRIRPRPPRLPRPRPRPPLGPRP | 0.585
RRIRSRPPRLPRPRPRPPQQPRP | 0.38
RRIRMRPPRLPRPRPRPERPPRP | 0.338
RRIRCRPPRLPRPRPRPYCKPRP | -0.894
RRIRFRPPRLPRPRPRPMNTPRP | 0.0693
RRIRCRPPRLPRPRPRPENNPRP | -0.303
RRIRLRPPRLPRPRPRPWLIPRP | -0.00228
RRIRERPPRLPRPRPRPVVVPRP | -0.112
RRIRVRPPRLPRPRPRPCFCPRP | -0.252
RRIRPRPPRLPRPRPRPIFKPRP | -0.0374
RRIRFRPPRLPRPRPRPDVPPRP | -0.356
RRIRNRPPRLPRPRPRPLKTPRP | -0.0746
RRIRIRPPRLPRPRPRPNGQPRP | -0.0848
RRIRRRPPRLPRPRPRPDMPPRP | -0.0169
RRIRSRPPRLPRPRPRPESTPRP | 0.0707
RRIRQRPPRLPRPRPRPGTWPRP | 0.0676
RRIRQRPPRLPRPRPRPWKMPRP | -0.112
RRIRERPPRLPRPRPRPNVDPRP | -0.0153
RRIRARPPRLPRPRPRPDHLPRP | -0.0183
RRIRVRPPRLPRPRPRPGLTPRP | -0.011
RRIRHRPPRLPRPRPRPGPYPRP | -0.226

Sequence | shrunken log2 fold change
RRIRIRPPRLPRPRPRPFQQPRP | -0.0967
RRIRQRPPRLPRPRPRPLWGPRP | -0.0254
RRIRHRPPRLPRPRPRPILCPRP | -0.182
RRIRSRPPRLPRPRPRPQWNPRP | -0.259
RRIRQRPPRLPRPRPRPLSHPRP | -0.168
RRIRTRPPRLPRPRPRPRHMPRP | -0.115
RRIRIRPPRLPRPRPRPNNCPRP | -0.0753
RRIRNRPPRLPRPRPRPAGYPRP | -0.0215
RRIRDRPPRLPRPRPRPIHTPRP | -0.159
RRIRARPPRLPRPRPRPPSAPRP | 0.827
RRIRQRPPRLPRPRPRPPVYPRP | -0.0643
RRIRQRPPRLPRPRPRPDGLPRP | -0.0465
RRIRERPPRLPRPRPRPVRNPRP | -0.41
RRIRFRPPRLPRPRPRPNANPRP | -0.0822
RRIRWRPPRLPRPRPRPQCHPRP | -0.13
RRIRPRPPRLPRPRPRPIHIPRP | -0.405
RRIRVRPPRLPRPRPRPWVCPRP | 0.133
RRIRLRPPRLPRPRPRPLHFPRP | -0.197
RRIRRRPPRLPRPRPRPAKQPRP | 0.136
RRIRDRPPRLPRPRPRPIECPRP | 0.279
RRIRKRPPRLPRPRPRPWNWPRP | -0.00973
RRIRRRPPRLPRPRPRPGHLPRP | 0.067
RRIRLRPPRLPRPRPRPTNRPRP | 0.267
RRIRVRPPRLPRPRPRPVWEPRP | 0.0761
RRIRARPPRLPRPRPRPGNFPRP | -0.226
